Test results reported in US20060121580A1.

B1: single-chain phage antibody SC03-006 (scFv)
scFv: SMAEVQLVESGGGLVQPGGSLRLSCAASGFTFSGYPMHWVRQAPGKGLEWVAVISYDGSNKYYADSVKGRFTISRDNSKNTLYLQMNSLRAEDTAVYYCAKDGSPRTPSFDYWGQGTLVTVLEGTGGSGGTGSGTGTSELDIQMTQSPHSLSASVGDRVTITCRASQGISNYLAWYQQKPGKVPKLLIYAASTLQSGVPSRFSGSGSGTDFTLTISSLQPEDVGVYYCQQRFRTPVTFGQGTKLEIKRAAA
B2: single-chain phage antibody SC03-012 (scFv)
scFv: AMAQVQLVQSGAEVKKPGASVKVSCKASGYTFTSYGISWVRQAPGQGLEWMGWISAYNGNTNYAQKLQGRVTMTTDTSTSTAYMELSSLRSDDTAVYYCARMFRKSSFDSWGQGTLVTVSRGGGGSGGGGSGGGGSSELTQDPAVSVALGQTVRITCQGDSLRSYYASWYQQKPGQAPVLVIYGKNNRPSGIPDRFSGSSSGNTASLTITGAQAEDEADYYCNSRDSSGNHVVFGGGTKLTVLGAAA
B3: single-chain phage antibody SC03-015 (scFv)
scFv: AMAEVQLVESGGGVVRPGGSLRLSCAASGFTFDDYGMSWVRQAPGKGLEWVSGINWNGGSTGYADSVKGRFTISRDNAKNSLYLQMNSLRAEDTAVYYCARGLSLRPWGQGTLVTVSRGGGGSGGGGSGGGGSSELTQDPAVSVALGQTVRITCQGDSLRSYYASWYQQKPGQAPVLVIYGKNNRPSGIPDRFSGSSSGNTASLTITGAQAEDEADYYCNSRDSSGNHVVFGGGTKLTVLGAAA

These binders were tested against inactivated SARS-CoV preparation (Frankfurt 1 strain), gamma-irradiated.
Work on B1 yielded an OD492 nm of 1.06 OD492 nm. For B2, the OD492 nm was 0.495 OD492 nm. B3 gave an OD492 nm of 0.796 OD492 nm.
